Assay results taken from paper PMC2840211.
Substitutions are numbered along the chain they refer to.

Tests used:
RAE-1δ (Mus musculus) = RAE-1δ (Mus musculus) (UniProt Q9JI58); conditions: cited from earlier work
[1] = target: ectodomain of m152 (mouse cytomegalovirus m152/gp40 immunoevasin) (mouse cytomegalovirus (MCMV)); experiment: AUC
[2] = target: ectodomain of m152 (mouse cytomegalovirus m152/gp40 immunoevasin) (mouse cytomegalovirus (MCMV)); experiment: AUC; remark: listed apart in the source
[3] = target: ectodomain of m152 (mouse cytomegalovirus m152/gp40 immunoevasin) (mouse cytomegalovirus (MCMV)); experiment: ITC

Sequence of UniProt Q9JI58 (Q9JI58 29-225, stated change not applied): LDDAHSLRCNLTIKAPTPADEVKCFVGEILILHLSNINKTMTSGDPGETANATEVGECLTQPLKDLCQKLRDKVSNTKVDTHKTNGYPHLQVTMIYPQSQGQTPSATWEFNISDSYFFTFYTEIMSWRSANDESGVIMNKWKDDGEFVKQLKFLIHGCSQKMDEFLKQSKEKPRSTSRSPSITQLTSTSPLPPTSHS

Molecule: NKG2D (from UniProt O54709)
- Kd (RAE-1δ (Mus musculus)): 726 nM

B1: ectodomain of RAE-1β (domain or fragment)
chain: GLDDAHSLRCNLTIKDPTPADPLWYEAKCFVGEILILHLSNINKTMTSGDPGETANATEVKKCLTQPLKNLCQKLRNKVSNTKVDTHKTNGYPHLQVTMIYPQSQGRTPSATWEFNISDSYFFTFYTENMSWRSANDESGVIMNKWKDDGEFVKQLKFLIHECSQKMDEFLKQSKEKP
- Kd [1]: 4100 nM
- koff [1]: > 0.001 s⁻¹
- stoichiometry N [1]: 1
- Kd [2]: 1700 nM
- Kd [3]: 2100 nM

B2: ectodomain of RAE-1γ (domain or fragment)
chain: GLDDAHSLRCNLTIKAPTPADPLWYEAKCLVDEILILHLSNINKTMTSGDPGETANATEVGECLTQPVNDLCQKLRDKVSNTKVDTHKTNGYPHLQVTMIYPQSQGQTPSATWEFNISDSYFFTFYTENMSWRSANDESGVIMNKWNDDGDLVQRLKYFIPECRQKIDEFLKQSKEKP
- Kd [1]: 1000 nM

B3: ectodomain of RAE-1γ PLWY-deletion mutant (domain or fragment)
chain: GLDDAHSLRCNLTIKAPTPADEAKCLVDEILILHLSNINKTMTSGDPGETANATEVGECLTQPVNDLCQKLRDKVSNTKVDTHKTNGYPHLQVTMIYPQSQGQTPSATWEFNISDSYFFTFYTENMSWRSANDESGVIMNKWNDDGDLVQRLKYFIPECRQKIDEFLKQSKEKP
- Kd [1]: 1400 nM

B4: ectodomain of RAE-1β PLWY-deletion mutant (domain or fragment)
chain: GLDDAHSLRCNLTIKDPTPADEAKCFVGEILILHLSNINKTMTSGDPGETANATEVKKCLTQPLKNLCQKLRNKVSNTKVDTHKTNGYPHLQVTMIYPQSQGRTPSATWEFNISDSYFFTFYTENMSWRSANDESGVIMNKWKDDGEFVKQLKFLIHECSQKMDEFLKQSKEKP
- Kd [1]: 31000 nM

B5: ectodomain of RAE-1δ (domain or fragment)
chain: B4 chain with D16A, A23V, K57G, K58E, N66D, N73D, R103Q, N125I, E158G
- Kd [1]: 34000 nM
